Test results reported in publication doi:10.1101/2024.10.02.616235, “Mechanism of DNA entrapment by the MukBEF SMC complex and its inhibition by a viral DNA mimic” (bioRxiv, 2024).

B1: T7 gp5.9, purified from insect cells (natural protein, bacteriophage T7)
chain: MSRDLVTIPRDVWNDIQGYIDSLERENDSLKNQLMEADEYVAELEEKLNGTS
notes: bacteriophage T7 gp5.9; histidine tag removed with 3C protease; Used as 'gp5.9 dimers' in SEC; source: Hi5 insect cells, purified (Talon, 3C cleavage, HisTrap, MonoQ)
B2: P. thracensis MukE as subunit of wild-type MukBEF (natural protein, Photorhabdus thracensis)
chain: MSSTHIEQFMPVKLAQALANSLFPELDSQLRAGRHIGIDDLDNHAFLMDFQEQLEEFYARYNVELIRAPEGFFYLRPRSTTLIPRSVLSELDMMVGKILCYLYLSPERLANQGIFTSQELYEELISLADEGKLMKFVNQRSSGSDLDKQKLQEKVRTTLNRLRRLGMVYFLPNNNNKFTITEAVFRFGADVRSGDDPREIQLRMIRDGEAMPVEGSLSLDDSENDETPDNSAEGAGDEQP
notes: Photorhabdus thracensis MukE; the MukE chain of m14; source: E. coli BL21-Gold(DE3), co-expressed as MukBEF from pFB403, purified

How the values were obtained:
[1] = molecular target: the molecule itself; assay: cryo-EM structure; E. coli MukEF 1 μM mixed with 4 μM gp5.9 in 20 mM Tris, 200 mM NaCl, 0.5 mM TCEP, 0.05 % β-octyl glucoside, pH 7.4, on ice
[2] = molecular target: the molecule itself; assay: cryo-EM structure; wild-type P. thracensis MukBEF dimers 150 nM with nicked plasmid pFB526 and 5 mM ATP, 10 mM MgCl2, pH 7.0, optionally with Na3VO4 or BeSO4/NaF; datasets pooled

Row | Protein | stoichiometry N [1] | stoichiometry N [2]
1 | B1 | 2 | 
2 | B2 |  | 2
